Measured values published in patent US20220348674A1 (APOLLOMICS, published 2022).
Substitutions are numbered along the chain they refer to. Each block holds one binder with its values, some of them ahead of it.

Tests used:
[1] = target: CD40 on HEKBlue CD40L reporter cells (UniProt P25942 21-277, limits assumed); experiment: cell-based or functional assay
[2] = target: T1, purified recombinant human CD40 protein (human, UniProt P25942 21-193); experiment: Octet (BLI), recombinant CD40
T1 construct: also called recombinant CD40

[3] = target: T2, cell surface human CD40 on HEK-CD40 cells (human, UniProt P25942 21-277); experiment: flow cytometry, titration on HEK-CD40 cells, CD40 MFI, anti-human IgG secondary antibody
T2 construct: whole, on cells; also called cell surface CD40
Experimental: HEK-CD40 were collected and plated at 10⁵ cells per well in 96-well round bottom plate in FACS buffer. Serial dilutions of antibodies (Control IgG1, CP870,893, APX005m and 3B5) in 100 ul were incubated with the HEK-CD40 cells for 60 min at 4° C. Cells were washed 3 times with 200 ul FACS buffer. Cell-bound antibodies were detected using an APC-conjugated secondary antibody specific to human IgG heavy and light chain. After incubating 30 min with secondary antibody, HEK-CD40 cells were washed 3 times with 200 ul FACS buffer and resuspended in 200 ul FACS with 1 ug/ml DAPI. Flow cytometric analyses were performed using Attune N×T flow cytometer (ThermoFisher Scientific, Waltham, Mass.). After gating on FCS-SSC parameters to exclude debris and selectively gating DAPI negative cells on DAPI-SSC parameters to exclude dead cells, the geometric mean fluorescence intensity (MFI) of antibodies was determined using FlowJo v10 (BD Bioscience, San Jose, Calif.). Dose-response curves were generated and EC50s calculated using GraphPad Prism 8 (GraphPad Software, San Diego, Calif.).

[4] = target: T1, purified recombinant human CD40 protein; experiment: ELISA on coated recombinant human CD40; chimeric antibody supernatant
Experimental: ELISA plate was coated with purified recombinant CD40 protein in coating buffer at lug/ml overnight. After washed for 3 times, the plate was blocked with 1% BSA, and then cell culture supernatants containing rabbit-human chimeric CD40 antibodies were added to the plate. For detection of the antibody binding to CD40 protein, goat anti-human Fc polyclonal antibody conjugated to alkaline phosphatase was used.

T1 sequence (P25942 21-193 limits assumed): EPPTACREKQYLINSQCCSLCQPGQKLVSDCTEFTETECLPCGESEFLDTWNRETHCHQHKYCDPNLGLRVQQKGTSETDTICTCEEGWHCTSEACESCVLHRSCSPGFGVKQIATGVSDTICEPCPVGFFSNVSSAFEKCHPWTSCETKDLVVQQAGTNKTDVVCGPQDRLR
Sequence of CD40 on HEKBlue CD40L reporter cells (P25942 21-277 limits assumed): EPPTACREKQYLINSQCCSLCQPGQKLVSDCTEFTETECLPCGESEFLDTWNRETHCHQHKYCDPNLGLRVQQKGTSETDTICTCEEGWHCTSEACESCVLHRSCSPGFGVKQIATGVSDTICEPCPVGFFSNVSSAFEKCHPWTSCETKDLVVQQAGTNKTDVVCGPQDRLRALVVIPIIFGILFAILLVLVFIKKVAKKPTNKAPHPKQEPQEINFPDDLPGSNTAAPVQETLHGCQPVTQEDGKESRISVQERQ
T2 sequence (P25942 21-277): as the sequence (P25942 21-277 limits assumed) above

IC50 (read off the curve) [1]: ~0.06 µg/mL
Kd [2]: < 1 pM
koff [2]: < 1e-07 s⁻¹
kon [2]: 1.06e+06 M⁻¹ s⁻¹
EC50 [3]: 0.69 µg/mL
B1: 3B5, humanized anti-CD40 mAb, IgG1 isotype (antibody, V domains shown)
VH: EVQLVESGGGLIQPGGSLRLSCAVSGFSLSTYAVSWVRQAPGKGLEWVGIIDSGGGTAYASWVKGRFTISRDNSKNTLYLQMNSLRAEDTAVYYCARGVTFFGLWGQGTLVTVSS
VL: DIVMTQSPSTLSASVGDRVTITCQASQSISNYLSWYQQKPGKAPKLLIYRASDLASGVPSRFSGSGSGTEFTLTISSLQPDDFATYYCQAYYYSGGGSYDYAFGGGTKVEIK
notes: also called HZD_3B5; 3B5 antibody

OD405 [4]: 1.48 OD405
B2: 3B5 rabbit-human chimeric anti-CD40 antibody (antibody, V domains shown)
VH: QSVEESGGRLITPGTPLTLTCTVSGFSLSTYAVSWVRQAPGKGLEWIGIIDSGGGTAYASWVKGRFTISKTSTTVDLKITSPTTEDTATYFCARGVTFFGLWGPGTLVTVSS
VL: DIVMTQTPASVEAAVGGTVTIKCQASQSISNYLSWYQQKPGQPPKLLIYRASDLASGVPSRFKGSGSGTEFTLTISDLECADAATYYCQAYYYSGGGSYDYAFGGGTEVVVK
notes: tested as cell culture supernatant

OD405 [4]: 1.65 OD405
B3: 4A7 rabbit-human chimeric anti-CD40 antibody (antibody, V domains shown)
VH: QSVEESGGRLVTPGTPLTLTCTVSGFSLSTYAMSWVRQAPGKGLEWIGIIDGGGFAVYANWAKGRFTISKASTTVDLKLPSPTTEDTATYFCARGVTFFNLWGPGTLVTVSS
VL: B2 VL with G17D, N31S, Y32A, S34A, D53T, A55E, A90S, G95S
notes: as for B2

OD405 [4]: 1.39 OD405
B4: 3E12 rabbit-human chimeric anti-CD40 antibody (antibody, V domains shown)
VH: QSVKESEGGLFKPTDTLTLTCTVSGFSFSNYRMIWVRQAPGNGLEWIGVIDRNDNTYYATWAKSRSTITRNTNLNTVTLKMTSLTAADTATYFCARDTDYTTGGIWGPGTLVTVSS
VL: DIVMTQTPASVSAAVGGTVTIKCQASQNIGDNLAWHQQKPGQPPKLLIYGASTLASGVPSRFKGSGSRTEYTLTISDLECADAATYYCQSNYYSTSSSYYNSFGGGTEVVVK
notes: as for B2

OD405 [4]: 1.72 OD405
B5: 4B7 rabbit-human chimeric anti-CD40 antibody (antibody, V domains shown)
VH: B4 VH with S27T, F28L, M33V, V49G, N53S, D54A, N55V, T56A, T60S, T102S
VL: DIVMTQTPSSVSAAVGGTVTIKCQASQNIGGNLAWYQQKPGQPPKLLIYGSSTLESGVPSRFSGSGSGTEYTLTISDLQCADAATYYCQSNYWSRSSSYVNSFGGGTEVVVK
notes: as for B2

OD405 [4]: 1.62 OD405
B6: 2E3 rabbit-human chimeric anti-CD40 antibody (antibody, V domains shown)
VH: QSVEESGGRLVTPGTPLTLTCTVSGFSLSTYAMSWVRQAPGKGLEWIGIIDGSSFTVYANWAKGRFTISKTSTTVDLKMTSLTASDTATYFCARGATFFGLWGPGTLVTVSS
VL: DVVMTQTPASVSAAVGGTVTIKCQASQSISGVLAWYQQKPGQPPKLLIYRAADLASGVPSRFKGSGSGTEFTLTINDLECDDAATYYCQSYYYSNSGSYSYAFGGGTEVVVK
notes: as for B2
